Assay [1] deals with T1, Recombinant human TGF-β1 (human, UniProt P01137 279-390).
T1 construct: It was amine coupled to the CM5 chip in SPR and used at 10 pM in the luciferase assay; also called transforming growth factor-β1
The assay is described as follows: SPR, TGF-β1 coupled, two-to-one stoichiometry model, kass 2 (second site). The protocol: (§1) As described in Example 3, TGF-β1 was coupled to the biosensor surface (approximately 250 RUs) by a standard amino coupling procedure. […] After data preparation by the ‘double referencing’ method, the set of sensorgrams was globally fit using a kinetic model depicting the presence of two independent TβRIIED binding sites on the TGF-β1 molecule (two-to-one stoichiometry model).
(§2) Regeneration of the sensor chip for subsequent injections was accomplished by two pulses of HCl (20 mM, 120 seconds), followed by an EXTRACLEAN procedure performed according to the BIACORE manual.
(In general: Surface plasmon resonance follows binding to a sensor surface in real time, without labels.)

For assay [2], the target named is T2, TβRIIED-E5 fusion protein (human).
T2 construct: Secreted from HEK 293SF cells; also called TβRII ED-E5 coil; E5 coiled-tagged TβRIIED
T2 chain: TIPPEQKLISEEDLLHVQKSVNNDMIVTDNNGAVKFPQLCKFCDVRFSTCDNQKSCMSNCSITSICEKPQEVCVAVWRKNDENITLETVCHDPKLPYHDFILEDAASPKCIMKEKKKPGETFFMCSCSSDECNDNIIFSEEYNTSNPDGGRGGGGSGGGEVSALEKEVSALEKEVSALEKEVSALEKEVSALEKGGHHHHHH
The assay is described as follows: SPR (BIACORE), TβRIIED-E5 captured on the coupled anti hTGF-βRII antibody, TβRIIED-K5 injected at 50 nM. The protocol:
A solution of 0.1 M ethanolamine-HCl (pH 8.5, 35 μL) was then used to block the remaining activated carboxyl groups.
Three studies were then performed at a flow rate of 5 μL/min: [0183] […] [0184] […] [0185]

Assay [3] has as its target T1, Recombinant human TGF-β1. As to the kind of experiment: SPR, TGF-β1 coupled, two-to-one stoichiometry model, Kd 1 (first site). The method, then:
as §1, §2

The target of assay [4] is T1, Recombinant human TGF-β1. As to the kind of experiment: SPR, TGF-β1 coupled, two-to-one stoichiometry model, kdiss 1 (first site). The method, then:
as §1, §2

The target of assay [5] is T1, Recombinant human TGF-β1. The assay is described as follows: SPR, TGF-β1 coupled, two-to-one stoichiometry model, kdiss 2 (second site). The protocol: as §1, §2
Assay [6] deals with T1, Recombinant human TGF-β1. As to the kind of experiment: SPR, TGF-β1 coupled, two-to-one stoichiometry model, Kd 2 (second site). The protocol: as §1, §2
In assay [7] the target is T1, Recombinant human TGF-β1. As to the kind of experiment: SPR, TGF-β1 coupled, two-to-one stoichiometry model, kass 1 (first site). The method, then:
as §1, §2

T1 sequence (P01137 279-390 limits assumed): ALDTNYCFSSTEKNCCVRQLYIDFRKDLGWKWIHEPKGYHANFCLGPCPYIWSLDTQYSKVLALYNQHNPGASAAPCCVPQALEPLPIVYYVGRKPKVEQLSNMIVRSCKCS

B1: TβRIIED-K5 fusion protein (receptor)
chain: TIPPEQKLISEEDLLHVQKSVNNDMIVTDNNGAVKFPQLCKFCDVRFSTCDNQKSCMSNCSITSICEKPQEVCVAVWRKNDENITLETVCHDPKLPYHDFILEDAASPKCIMKEKKKPGETFFMCSCSSDECNDNIIFSEEYNTSNPDGGRGGGGSGGGKVSALKEKVSALKEKVSALKEKVSALKEKVSALKEGGHHHHHH
notes: Secreted from HEK 293SF cells; The monomer was separated from aggregates with a Centriprep 30; also called K5 coiled-tagged TβRIIED; monomeric TβRIIED-K5
As usually defined, the kon is the rate constant with which the complex forms. The Kd is the concentration at which binding is half-saturated. A word on the koff: it is the first-order rate constant of dissociation. In the case of B1, the kon in assay [1] was 1900 M⁻¹ s⁻¹; in assay [7], 365000 M⁻¹ s⁻¹. Moreover, in assay [2], the binding result was “binds”. Besides, the dissociation constant (Kd) in assay [3] came out at 90 nM; in assay [6], 1250 nM. Moreover, the values for the off-rate (koff) in assay [4] and in assay [5] were 0.033 s⁻¹ and 0.0026 s⁻¹, respectively.

The values above are taken from US20070154994A1 (NATIONAL RESEARCH COUNCIL OF CANADA, published 2007).
